Laboratory results from patent publication US20220380407A1 (WASHINGTON UNIVERSITY, published 2022).
Like-named read-outs stand apart in the source and are kept apart here. Positions of bridges follow the written chain, without caps; N, C: chain ends. *: point of attachment. X2 = 1‑(ethylsulfonyl)piperidin‑4‑yl carbamate, CCS(=O)(=O)N1CCC(OC(=O)*)CC1; kbt = C-terminal Arg ketobenzothiazole

T1: recombinant N-terminal His-tag HGFA serine protease domain (UniProt Q04756 373-655)
T1 sequence (looked up): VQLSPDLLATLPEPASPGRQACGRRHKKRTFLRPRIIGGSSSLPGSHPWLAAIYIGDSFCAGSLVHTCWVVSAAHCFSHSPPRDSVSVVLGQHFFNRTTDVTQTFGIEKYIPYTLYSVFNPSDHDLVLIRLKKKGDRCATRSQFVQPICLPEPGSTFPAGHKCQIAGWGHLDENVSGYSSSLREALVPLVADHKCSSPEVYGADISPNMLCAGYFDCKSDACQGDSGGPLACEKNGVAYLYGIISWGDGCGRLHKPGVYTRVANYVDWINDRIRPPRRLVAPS

T2: matriptase (#3946-SE-010, R&D Systems) (UniProt Q9Y5Y6 615-855)
T2 sequence (looked up): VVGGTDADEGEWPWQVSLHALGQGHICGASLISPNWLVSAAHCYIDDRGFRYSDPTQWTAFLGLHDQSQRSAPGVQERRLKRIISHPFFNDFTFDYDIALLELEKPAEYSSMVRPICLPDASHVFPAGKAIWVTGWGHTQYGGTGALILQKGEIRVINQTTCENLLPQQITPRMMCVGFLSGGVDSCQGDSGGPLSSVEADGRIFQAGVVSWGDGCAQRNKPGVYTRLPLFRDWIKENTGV

T3: KLK5 (#1108-SE-010, R&D Systems) (UniProt Q9Y337 23-293, limits assumed)
T3 sequence (looked up): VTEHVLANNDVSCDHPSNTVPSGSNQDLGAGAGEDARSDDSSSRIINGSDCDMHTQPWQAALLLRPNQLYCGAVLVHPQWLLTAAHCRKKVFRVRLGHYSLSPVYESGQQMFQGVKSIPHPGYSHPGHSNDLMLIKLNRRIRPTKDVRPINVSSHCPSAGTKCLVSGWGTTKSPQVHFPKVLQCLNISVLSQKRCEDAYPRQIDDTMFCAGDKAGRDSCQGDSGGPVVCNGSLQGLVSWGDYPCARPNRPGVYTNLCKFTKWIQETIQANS


Legend:
Assay in all cases: cell-based or functional assay
[1] = molecular target: T1, recombinant N-terminal His-tag HGFA …
[2] = molecular target: T4, recombinant thrombin (#1473-SE-010, R&D Systems) (UniProt P00734 44-622)
[3] = molecular target: T5, activated hepsin (#4776-SE-010, R&D Systems) (UniProt P05981 45-417, limits assumed)
T5 sequence (P05981 45-417 limits assumed): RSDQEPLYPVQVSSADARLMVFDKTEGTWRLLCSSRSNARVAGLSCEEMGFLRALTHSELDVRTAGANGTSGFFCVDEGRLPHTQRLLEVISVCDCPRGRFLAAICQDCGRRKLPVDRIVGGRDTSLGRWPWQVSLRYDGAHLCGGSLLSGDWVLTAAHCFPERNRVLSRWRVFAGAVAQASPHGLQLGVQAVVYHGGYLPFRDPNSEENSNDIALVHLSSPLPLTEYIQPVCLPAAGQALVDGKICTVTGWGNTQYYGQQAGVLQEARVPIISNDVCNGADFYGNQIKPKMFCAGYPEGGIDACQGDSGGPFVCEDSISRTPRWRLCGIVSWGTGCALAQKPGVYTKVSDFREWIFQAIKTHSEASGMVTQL

[4] = molecular target: T2, matriptase (#3946-SE-010, R&D Systems)
[5] = molecular target: T6, Factor Xa (#1063-SE-010, R&D Systems) (UniProt P00742 41-488, limits assumed)
T6 sequence (P00742 41-488 limits assumed): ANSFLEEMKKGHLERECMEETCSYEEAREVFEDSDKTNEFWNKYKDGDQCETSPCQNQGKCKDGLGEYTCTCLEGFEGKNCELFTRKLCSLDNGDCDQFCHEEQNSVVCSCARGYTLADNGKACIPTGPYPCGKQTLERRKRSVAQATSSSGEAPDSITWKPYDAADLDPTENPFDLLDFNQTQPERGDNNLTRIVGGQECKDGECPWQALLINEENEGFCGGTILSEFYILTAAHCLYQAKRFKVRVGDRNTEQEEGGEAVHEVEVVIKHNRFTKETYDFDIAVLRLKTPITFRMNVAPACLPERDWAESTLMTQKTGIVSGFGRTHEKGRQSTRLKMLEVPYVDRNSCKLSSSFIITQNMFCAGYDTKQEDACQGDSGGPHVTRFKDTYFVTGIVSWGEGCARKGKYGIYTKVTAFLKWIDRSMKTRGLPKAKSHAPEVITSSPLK

human TMPRSS2 [6] = molecular target: T7, human TMPRSS2 (human, UniProt O15393 1-492)
T7 sequence (O15393 whole entry): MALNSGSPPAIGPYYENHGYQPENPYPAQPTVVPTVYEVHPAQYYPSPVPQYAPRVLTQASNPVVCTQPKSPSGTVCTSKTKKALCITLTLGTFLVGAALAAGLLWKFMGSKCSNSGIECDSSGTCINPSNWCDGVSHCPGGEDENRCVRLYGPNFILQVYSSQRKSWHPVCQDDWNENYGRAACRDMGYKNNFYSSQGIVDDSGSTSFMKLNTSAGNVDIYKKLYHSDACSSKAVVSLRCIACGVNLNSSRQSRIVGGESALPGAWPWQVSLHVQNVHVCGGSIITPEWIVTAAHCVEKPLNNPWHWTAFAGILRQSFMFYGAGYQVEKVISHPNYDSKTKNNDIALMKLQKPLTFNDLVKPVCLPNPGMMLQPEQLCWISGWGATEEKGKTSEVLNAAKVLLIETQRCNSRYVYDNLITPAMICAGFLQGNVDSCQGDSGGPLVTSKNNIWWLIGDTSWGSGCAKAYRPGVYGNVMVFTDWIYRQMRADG

[7] = molecular target: T3, KLK5 (#1108-SE-010, R&D Systems)
[8] = molecular target: T1, recombinant N-terminal His-tag HGFA …; remark: listed apart in the source
[9] = molecular target: T4, recombinant thrombin (#1473-SE-010, R&D …); remark: listed apart in the source
[10] = molecular target: T5, activated hepsin (#4776-SE-010, R&D …); remark: listed apart in the source
[11] = molecular target: T2, matriptase (#3946-SE-010, R&D Systems); remark: listed apart in the source
[12] = molecular target: T6, Factor Xa (#1063-SE-010, R&D Systems); remark: listed apart in the source
[13] = molecular target: T1, recombinant N-terminal His-tag HGFA …; remark: listed apart in the source
[14] = molecular target: T5, activated hepsin (#4776-SE-010, R&D …); remark: listed apart in the source
[15] = molecular target: T2, matriptase (#3946-SE-010, R&D Systems); remark: listed apart in the source
human TMPRSS2 [16] = molecular target: T7, human TMPRSS2; remark: listed apart in the source

| Binder | HGFA IC50 [1] | Thrombin IC50 [2] | Hepsin IC50 [3] | Matriptase IC50 [4] | Factor Xa IC50 [5] | IC50, cell-based TMPRSS2 fluorogenic enzyme inhibition assay (human TMPRSS2 [6]) | KLK5 IC50 [7] | HGFA (IC50 nM) [8] | Thrombin* (IC50 nM) [9] | Hepsin (IC50 nM) [10] | Matriptase (IC50 nM) [11] | Factor Xa* (IC50 nM) [12] | HGFA IC50 [13] | Hepsin IC50 [14] | Matriptase IC50 [15] | Calu-3 EC50 (human TMPRSS2 [16]) |
| --- | --- | --- | --- | --- | --- | --- | --- | --- | --- | --- | --- | --- | --- | --- | --- | --- |
| X2-Leu-Arg-kbt [1-(ethylsulfonyl)piperidin-4-yl Leu-Arg-kbt carbamate (8h)] | > 20000 nM | > 20000 nM | 10 nM | 730 nM | > 20000 nM |  |  |  |  |  |  |  |  |  |  |  |
| {phenyl(piperidin-4-yl)methyl carbamate}-Leu-Arg-kbt [phenyl(piperidin-4-yl)methyl Leu-Arg-kbt carbamate (11a)] | 14000 nM | > 20000 nM | 8 nM | 1100 nM | > 20000 nM |  |  |  |  |  |  |  |  |  |  |  |
| Ac-DLKR-kbt (lactam 1-3; not fully specified; printed as Cyclo(DLK)R-kbt; also: N-terminal acetyl described as 6-acetamido) [Cyclo(DLK)R-kbt, VD2173] |  |  |  |  |  | 6.9 nM | 193 nM | 3590 nM | 700 nM | 8.4 nM | 0.28 nM | 564 nM | 5260 nM | 10 nM | 1.4 nM | 104 nM |
| Ac-SKLR-{kbt-Val-NH2} [Ac-SKLR kbt V-amide, ZFH7116] |  |  |  |  |  | 51 nM | 137 nM |  |  |  |  |  | 26 nM | 0.5 nM | 11 nM | 307 nM |
